# Paper doi:10.1101/2025.07.24.665437, “Consensus DNA Inhibits p53 Aggregation but Fails to Rescue Mutants”
# Target: p53 DBD WT (UniProt P04637 94-312)
# Experiment: EMSA; protein:DNA 1:1, 9:1, 454:1; binding kept 24 h to 1 month; EMSA on TBE gels; protein in 1X PBS, 1 mM TCEP, pH 7.4; DNA stocks in 50 mM Tris-HCl, 137 mM NaCl, pH 8.1; samples held at 4 C (0 hr) or incubated (37 C, 24 h for aggregation); full EMSA details not in material
# Settings: protein: recombinant; tags: 6xHis-TEV (N-terminal); blunt
# Sequence of p53 DBD WT (P04637 94-312): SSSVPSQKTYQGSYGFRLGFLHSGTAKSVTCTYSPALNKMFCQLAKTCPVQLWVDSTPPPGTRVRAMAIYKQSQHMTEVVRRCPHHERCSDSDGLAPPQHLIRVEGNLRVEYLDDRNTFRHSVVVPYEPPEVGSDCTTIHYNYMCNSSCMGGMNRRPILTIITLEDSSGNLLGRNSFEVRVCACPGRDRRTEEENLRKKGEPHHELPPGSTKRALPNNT
binder,measurement,value
p21-RE (dsDNA) DNA 1: CGCGAACATGTCCCAACATGTTGCGC DNA 2: GCGCAACATGTTGGGACATGTTCGCG,binding result,binds
